B1: GFP-PN2-3: GFP-tagged CPAP residues 311-422, expressed from a transfected vector (protein, UniProt Q9HC77 311-422, looked up, fragment)
chain: QKHDDSSEVANIEERPIKAAIGERKQTFEDYLEEQIQLEEQELKQKQLKEAEGPLPIKAKPKQPFLKRGEGLARFTNAKSKFQKGKESKLVTNQSTSEDQPLFKMDRQQLQR
modifications: GFP tag
notes: GFP-tagged CPAP residues 311-422, expressed from a transfected vector
B2: GST-PN2-2: GST fusion polypeptide with sub-region PN2-2 of PN2 (CPAP residues 191-310 per b157) (protein)
chain: LSLLPDDQSQKHRSPGNTTTGERATCCFPSYVYPDPTQEETYPSNILSHEQSNFCRTAHGDFVLTSKRASPNLFSEAQYQEAPVEKNNLKEENRNHPTGESILCWEKVTEQIQEANDKNL
modifications: left off: a dimerising Fc or GST

What was measured:
HeLa cells [1] = assay: Flow cytometric cell cycle analysis of transfected HeLa cells; type: cell-based, human; conditions: transiently transfected HeLa cells
Protocol: (§1) HeLa cells were maintained in DMEM supplemented with 10% fetal bovine serum. cDNA clones encoding different portions of CPAP were subcloned, in an appropriate reading frame, into the CMV promoter-driven EGFP-C1 expression vector (Clontech, Palo Alto, Calif.). Transient transfections were performed using Lipofectamine 2000 (Invitrogen, Carlsbad, Calif.) according to the manufacturer's instructions.
Transfected HeLa cells were harvested 48 hr following transfection. Both the adherent cells and non-adherent cells present in the culture supernatants were collected and subjected to centrifugation. The resulting cell pellets were resuspended in PBS then fixed in 1% formaldehyde at 4° C. for 30 min. Following fixation, the cells were collected by centrifugation, washed, and resuspended in 70% cold ethanol. The resuspended cells were either stored at −20° C. overnight or immediately used for FACS analysis.
FACS analysis was performed by collecting the fixed cells by centrifugation and resuspending the cells in DNA staining solution (100 μg/ml propidium iodide, 0.1% Triton X, and 100 μM EDTA in PBS) for 30 min at room temperature. Cell cycle analysis was performed on a FACS Calibur (Becton-Dickinson, Mountain View, Calif.) with the signal gated to measure only GFP fluorescence. Ten thousand events were acquired and the percentages of cells in G0/G1, S, and G2/M were determined using the ModfitLT software (version 2.0, Verity Software House, Inc., Topsham, Me.). The apparent accumulation of cells with two genome copies (i.e., twice the genetic material of G0/G1 cells) is indicative of cell cycle arrest after DNA synthesis but prior to mitosis.

HeLa cells [2] = assay: Cell-based assay for CPAP activity: microtubule reassembly in cold-treated transfected HeLa cells; parameters: species or system human; conditions: transiently transfected HeLa cells
Protocol: Cell Culture and Transfection
as §1
Cold Treatment, Immunofluorescence and Confocal Microscopy
HeLa cells were grown on coverslips for at least 24 hr. Cold treatment was performed by incubating the cells at 4° C. for 1 hr, then replacing the cold medium with medium warmed to 30° C. and incubating the cells for 2 min at 30° C. The cells were then fixed with 1% formaldehyde for 30 min at room temperature.
The fixed cells were incubated in the presence of anti-α-tubulin monoclonal antibodies (N356, Amersham, Piscataway, N.J.) and anti-γ-tubulin polyclonal antibodies (Sigma, Saint Louis, Mo.). Bound anti-α-tubulin monoclonal antibodies (N356) were detected with Alexa 568, a Texas Red-conjugated goat anti-mouse IgG, or Alexa 647, a far-red fluorophore-conjugated goat anti-mouse IgG. Bound anti-γ-tubulin polyclonal antibodies were detected with Alexa 568 (Molecular Probes Inc.). The resulting […] signals were detected using a laser scanning confocal system (MRC 1000, Bio-Rad Laboratories, Hercules, Calif.).
The effect of various polypeptides derived from CPAP was determined by evaluating the amounts of mitotic spindle formation in the transfected cells. Decreased mitotic spindle formation indicated the presence of an activity that inhibited microtubule formation or destabilized microtubules.

Bovine brain α/β tubulin = biological target: T1, Bovine brain α/β tubulin (Bos taurus, UniProt P81947+Q6B856); assay: In vitro microtubule sedimentation assay; type: biochemical; conditions: 15 μM tubulin; 40 μM polypeptide
T1 construct: Bovine brain α/β tubulin (15 μM; Cytoskeleton Inc., Denver, Colo.); purchased Cytoskeleton Inc., Denver, Colo; host or cells: bovine brain (tissue-purified)
T1 sequence (P81947 whole entry): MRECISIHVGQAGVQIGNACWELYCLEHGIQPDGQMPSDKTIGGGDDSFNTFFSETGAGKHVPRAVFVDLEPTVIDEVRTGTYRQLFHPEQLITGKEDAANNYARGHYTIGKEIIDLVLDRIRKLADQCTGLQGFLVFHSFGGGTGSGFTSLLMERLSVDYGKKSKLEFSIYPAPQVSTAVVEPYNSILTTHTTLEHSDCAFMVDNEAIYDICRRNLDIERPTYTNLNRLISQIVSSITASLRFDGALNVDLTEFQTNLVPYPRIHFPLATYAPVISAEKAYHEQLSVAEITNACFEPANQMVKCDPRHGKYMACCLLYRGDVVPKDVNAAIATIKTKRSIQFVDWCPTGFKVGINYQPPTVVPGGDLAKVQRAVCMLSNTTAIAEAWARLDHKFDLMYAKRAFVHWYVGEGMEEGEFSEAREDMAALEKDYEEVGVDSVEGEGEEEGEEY
T1 sequence (Q6B856 whole entry): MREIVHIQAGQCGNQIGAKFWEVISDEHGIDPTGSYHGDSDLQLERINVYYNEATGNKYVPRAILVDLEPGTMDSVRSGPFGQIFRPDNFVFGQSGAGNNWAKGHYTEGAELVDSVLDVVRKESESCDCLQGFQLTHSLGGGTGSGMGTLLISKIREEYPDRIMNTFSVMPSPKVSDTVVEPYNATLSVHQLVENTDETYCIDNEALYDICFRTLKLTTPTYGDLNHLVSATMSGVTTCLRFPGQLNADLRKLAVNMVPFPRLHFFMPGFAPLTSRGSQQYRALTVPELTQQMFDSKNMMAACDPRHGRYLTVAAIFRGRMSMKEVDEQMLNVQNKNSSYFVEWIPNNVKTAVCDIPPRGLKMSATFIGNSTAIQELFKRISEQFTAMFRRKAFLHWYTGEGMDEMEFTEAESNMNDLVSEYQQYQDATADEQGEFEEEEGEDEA
Protocol: In vitro Microtubule Sedimentation Assay
Bovine brain α/β tubulin (15 μM; Cytoskeleton Inc., Denver, Colo.) was pre-incubated with various amounts of truncated GST-CPAP proteins in a 50 μl reaction mixture comprising RG1 buffer (see Example 2) for 30 min at 37° C. Tubulin polymerization was initiated by adding 50 μl GMRG buffer (RG1 buffer supplemented with 12 mM MgCl2 and 50% glycerol), then incubating the reaction mixtures at 37° C. for 1.5 hr.
The reaction mixtures were then subjected to centrifugation at 300,000×g for 15 min at 37° C., in a TL-100 ultracentrifuge (Beckman Instruments, Fullerton, Calif.). Supernatants (S) and pellets (P) were analyzed by SDS-PAGE followed by staining with Coomassie blue.
Microtubule disassembly was confirmed using the microtubule sedimentation assay. Following centrifugation of the reaction mixtures, relatively soluble tubulin monomers and small multimers are found in the supernatant, while relatively insoluble polymerized tubulin is found in the pellet. To assay the ability of PN2-3-containing polypeptides to destabilize microtubules, reactions comprising 15 μM tubulin were incubated in the presence of increasing amounts of GST-PN2-3 (1.9, 3.8, 7.5, and 15 μM) or GST-PN2-2 (15, 30, or 40 μM), or in the absence of CPAP-derived polypeptides (control; FIG. 4A).

[3] = biological target: T2, polymerized microtubules (bovine brain tubulin) (Bos taurus, UniProt P81947+Q6B856); assay: Microtubule depolymerization assay (centrosomes omitted); type: biochemical; conditions: centrosomes absent; nocodazole 15 μM as positive control; data not shown
T2 construct: containing 125 μg bovine brain tubulin (Cytoskeleton, Denver, Colo.); purchased Cytoskeleton, Denver, Colo; host or cells: bovine brain (tissue-purified)
T2 sequence (P81947 whole entry): as the sequence (P81947 whole entry) above
T2 sequence (Q6B856 whole entry): as the sequence (Q6B856 whole entry) above
Protocol: Microtubule Depolymerization Assay
In this assay, centrosomes are omitted from the above reaction mixtures to determine the effects of various truncated GST-CPAP proteins or synthetic peptides on microtubule polymerization in the absence of centrosomes. Polymerized microtubules were stained using FITC-conjugated anti-α-tubulin monoclonal antibodies, as above. Nocodazole (15 μM) was added to some reactions mixtures as a positive control for microtubule depolymerization.

Molecule	Cell cycle distribution by DNA content (in words) (HeLa cells [1]; propidium iodide, GFP-gated)	Cell morphology (in words) (HeLa cells [1]; data not shown)	Cell proliferation (in words) (HeLa cells [1]; data not shown)	Inhibition of microtubule reassembly in cold-treated mitotic cells (in words) (HeLa cells [2])	Distribution of tubulin in the supernatant and pellet (in words) (Bovine brain α/β tubulin)	Disassembly of polymerized microtubules in the absence of centrosomes (in words) [3]
B1	progressive accumulation in G2/M	change in morphology (to round cells)	stopped proliferating	significantly inhibited microtubule reassembly	–	–
B2	–	–	–	–	little effect	no such effect

Reference: US7449563B2, “Methods and compositions for destabilizing microtubules” (Academia Sinica, priority 2003, dated 2008)
